# Experiment: soluble fraction after stress (log2 fold change); higher = more stays soluble; pooled small domains, quantitative proteomics
# Details: stress: 50 degC
# Method in brief: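 Pooled custom libraries of small protein domains were each held under stress at 50°C. The read-out, high-throughput quantitative proteomics, tracked how much of each protein stayed soluble. This is reported as a base-two log fold change used to indicate aggregation propensity. Higher values mean more protein remains in solution.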
row,Sequence,soluble fraction (log2)
1,HMSSVDLLSERERQVLARISRGMSNEEIAAELAITPRTVRNHLANIYGKIDVHSRAEAVVWARERGIT,0.0251
2,HMALEGTLARVSVRIPESGVGEIIFSLGGVRRSEAARSVSGRAIPRGTEVVILSYERGIATVQPYEELLTN,0.013
3,HMEEKVEVPNLSGKTYQQAKALLESYGLVAAKGGEEESEEPVGKVSRWSSAGKSVKKGTTITVWISGGI,-0.0709
4,HMRFANGHLIWDTIIELRNAERRINRRALADLTGLKPGVVDDHVERWIEKDQLRRAGNGELEVV,-0.943
5,HMSNPPLPFLAKTKVSWTGEQDGDLGFLENEVVKVFHVVDELWWQGSLSRNGAEGIFPRDFVEVISAP,-1.8
6,HMDGEAQTYVEYGKWFPADLPLEAVRQLADGVPVTKELVAALNPRRSEWEEIKAGLDKIGYPNELL,0.0308
7,HMTPPPTNSREWMEWGISHGLDANLDRSGQVVFYTDDRVVADAAELSGADLERDNMGQFVIYTGAYDKG,0.0665
8,HMGHTKLVVDIVEELKLEQGALLPILHAIQDELGYVPTKSVPFIADSLNLSRAEVHGVISFYHYFR,0.15
9,HMNAFEIYPNPASNLIRIDAEFTVAKIFSQTGNLIQTSTTKEIDVYNLANGIYFVKLDDSPSMVKFVIN,-0.705
10,HMNTLPASVQPKKGRLYAVIQTKENGKSKPVWRSLGLPEGSNKSKVNKAFREVVKQFEEEYAERLAR,0.0511
11,HMGRENGTVKWFNTSKGFGFITRDDGGDVFVHFRSIQGEGHRALQEGQRVSYVVANRDKGLQAEDVTILN,0.131
12,HMVDIVLDILKIVAEKQPGNQFSQSILMQYQERGGLSKKQLEGLYGKAKRIPEIPQNKLATLEAIILR,-1.41
13,HMKVTGSVQKKKGYYYIVVRLPTKNGTQYEQKQKWFNTKLKATPRNKTAAQVILAEKLTEYGGIV,-2.8
14,HMERLSVSMGDMVVFVRDAVEAFRGLVKEKGITLTFESKVEHFYMNYDHDKVYKVVNNLLSNAVKFT,-0.209
15,HMLRPEEMIYHEMLDAILDRRLEPGMKLVEEDLAKTFGVSRARIRATFLQLAHDKLINLVPNRGAFVAEP,-1.77
16,HMQTMNKTNISNFEKYLNSGDVSEVIVVRNKSSVRVTLTPEALRSSEHQAVVGKNILGQENIKGPHYQFEV,-0.0672
17,HMTTKGGLVRDTVLNEFRDSEFTRREVELVLNGVASERTIRGALSEMVERGELTQVNFGISTRYRLNQ,-0.385
18,HMVAEPVYGKVTEGPLNVRSAPSTDSEKVDSFSTGKVLTILETLDGWYKVEEGYVSADYVTIIDAAEAASS,0.00408
19,HMSSASETQYELALQAMRDGDNDAALRSLSTALASGFSDWQRIDEEPLLAALANDVRFQVLRSRWK,0.0414
20,HMELADNFAKLILTARESKGWTQAQLGQRMAETINVIKSAESGKPPADSVIRKFEMILGIELM,-1.96
21,HMHPELSDSQRTLIALMASGLKDEAIAVEMGVGARTVRRKVQELYELLGVRTRFQAGVAANQRGW,-1.79
22,HMHQIFAETVFEDIAFGPRNKGFNEEEVAKQVREAMAFVGLDYDTYAQRSPFQLSGGQMRRVAIAGVVA,-0.0418
23,HMSDKEDIDKYLLTYGDLLFNRTNSSEWVGKTAIYRGEVSAIYAGYLIRIRSFLDAEYLNSVMNSKYA,-0.235
24,HMGPLPIDSRYFNNLVPYTGITHVNSVIPEAERHIGLTVVVKTGSTYSEYWYRTGVTNSSLELKT,-0.634
25,HMPPTEQVYRSHVPPQYDGFPIEKYFTTRFSYQDVEEWSRQILAGKIEVNGKTALIGQILSASDLTVTRA,-0.855

row,Sequence,soluble fraction (log2)
1,HMNTLPTDELMKYGIINEDLSFSKKLNADDIQKFLQGYTIVADNDKNRATFQLTENNTKLKVIFLER,-0.438
2,HMRESLSEAERHPRYLEGEDVVRMFLLMGDLSRVEAEVIALQWNAQEADRVGLPQDAKVFRTRAR,-0.511
3,HMNNDSQYLATLQRYYAEHRVLPSYARMLPLLGFASKAAVKKVLERLEVVGMLERTEDGDWAPSERFFER,-1.7
4,HMGETDDDFRELEEFVEKTKFDKLGTFMYSKEEGTPAARLPEQIHGNTKKSRYNKIMSIQQKVSNEN,-0.0112
5,HMHDLTERQREILQTLASGKMALREILSILSQPPSLRTLRDELYHLKRIGLVDTMGYGRGATWFLTQ,-0.103
6,HMKMQIGEIIRKYRKSNHMTQEEMAERLGVSAPAVNKWENGNSMPDIMLLAPITRLLGISLDELLSFE,-1.24
7,HMKNVSVKMILSPESLGEIQVDLVFSKGKDLEIMLRPETAEVAKLIQSNSASLREQLSLEHKGPLSLNVS,-0.626
8,HMEDPFATLGVHREASLDEIKRAYRRLAMFWHPDRNPEAVAGTEFKRVHAAYELLLDPQRLAEWQQAQAT,0.04
9,HMTPEPVTMYITSLTEFRSEPNTEAGIIKLLDAYEEVEMIESRGEWSKISYGDQIGYILSEFLTAENRT,-0.0121
10,HMRMTLKNKVEDIVHILRKDKQTSLSAILGDNTDRIQTIVVFLAILELVKQHLIKTDQNANFGDINLFPED,-0.0677
11,HMFNRAVSDNEALQVREHFDRDATVMSLAKKYGVSTVTIQRILLGKTYRNVGGPLFDKATLKKRMGN,-0.66
12,HMTFPTEAKLTGDKVFVRSGPSTQSQRLTNLAINSVVTVLAREMGDMQYPWYKVRYSDGEGWVYGQYVEAI,-0.0237
13,HMVNAVKFAIEKMPYKYSSLLTLKYVMGYSGKEIAEITGLSETNVRQQLLKGRKLLESMLEE,-2.43
14,HMAVEQLKSQIGGFLKANREQSFSAQNMADGLRMNSAAGYQDVVNAMNALVRDGEAVEKDGQFSYNVN,0.15
15,HMSVKVFRDQILLNNDSDKMLQLSFSNLFGQKVLETSISPGKSAISTGNLPPGIYFITTSPATGVMRVII,-1.12
16,HMITGREMDVLEALWSSEKPLVASDIPKMKPSLSISSVQLALRNLVKKKLVEVADIVYSGTVLSRSYRP,0.0545
17,HMVTARMPDLFGLDEATAQRMVSNAGLTLKTEYAYSDQAEGYVFDQTPEANAEVRRGGTVTAMIS,0.0381
18,HMENRILIPTAENIGERLDRYISSELDAPRSQVQIWIDSGLVAVSGGLKPKNYRLREGDEIEVTIPDPV,0.0407
19,HMDSVTLGISFNGKTRFTLDFPADAAAADIEKAALEAEQSQRYLEGMTVAKVIVVPGRIVNIVLK,-0.501
20,HMNDITVNVEDSKLIVTSNNPEKLPLYIMDIQGHILDKSEITAGTYSFPISDRGTYIVRIGENVYKVI,0.0386
21,HMRKAERHLLIKQVIDEFTIRTQEELLAKLSDYGVNATQATISRDIRDLKIVKAPDENGISRFVFF,-0.964
22,HMEKLNERLLYLRKNANLTQQQLADKLHISNKTISQWETGRTLPDIVMLVRLAEIYDMKLDELLNQ,-0.29
23,HMQNSLKAFRVKRGLTTSALSRLTNGEFSTSRISNYETGVRALTIDAAKKLAPHLGASPAQLLNL,-0.357
24,HMVDWTFPVLVKDVVMMGRYGHMGFLRIPGKKDFESVDNALAKVGMVEYAKQQIGELSGGQR,-0.0772
25,HMYYTAPDGRKREILDAALRLIAAGGPDSLTYRRVADEAGVPLGSLTYYFEAREDLIREAFRLYIAEASR,-3.04

row,Sequence,soluble fraction (log2)
1,HMSGEITVPNLIGVEAIQAKTLLIQAGFLIKEFYDLDSTQPAGVVIRQAPEAGTTQTIGKSVTITINKQ,-0.00644
2,HMSTDDILSSITALRLASVQFQLGQFDPALDSLKLVKEQAWSGAKNILAGDIQLAKGDKEAAKASYQQAQQ,-0.38
3,HMSDRQLKRQANILYTTRKLASKVGYDGLTMRGLAEASEVSPKTLYNLFSSKDELLAAALEDLVGIV,0.282
4,HMATVELELKPEELRAGMILTKDLISGTGMMLLNKGVTLDNVKVEAIQRYYQLDPPLHGVFALVHGK,-0.503
5,HMTPAPHESLTDREMEVLKLLAQGLSNQEIADKLFIGVKTVKYHITNIFSKLGVEDRTQAAIYAHKQGLA,0.0163
6,HMLLFNVADIVKRAKRVLNFKTDAELAAYLGVSRPTLSNWIARNGIDFPLLLEKLKEIDYNWLLVGKGKPE,-2.33
7,HMNEYHRNISDEEFVRDIKETAIKLKKETLTGVEYSQNGKYHASTIIHRFGSWKKALELAELNTK,-0.056
8,HMEATILTATPEAAGQRLDAFLAETLPELTRSAAQRLIAEGQVAVDGKIPTKSLKLAGGETVSVRLPEPE,0.275
9,HMPEAITLRDLKTYSKQAASGYLDDHQLVLVEKEAHSEDVPEGQVIKQKPGAGASVKPGDKVEVTFSLGPE,0.0136
10,HMEKVTPEMIAEYNALAKKYNSNPEVVFKKKEIQRLKYIYSLMSEKQKETAEVFPNIPPPPPT,-0.234
11,HMVTPPMVVVDVQGEVKTPGVYHLPTNSRVNDAIKAAGGPKQSADLSYINQARMVKDGEQIYVEKKL,0.12
12,HMLLSYDIAEYIEKYIHEHGLQPGDRLPTERELAAQLDITRVSVRQGYKRLLDQGVIRSENGYYVNPPR,-1.34
13,HMGKRPTIQMVAEMAGVSRGTVDRVLNGRSYVSAQVRQRVLAALQETGYISSREHHQQALQS,-0.0246
14,HMAEDLRTLDGIDEDLLRDLAQAGITTRDGLAELSIDELREITGVEPGEAEKIILAARAHWFETDE,-0.135
15,HMNLFNEIEKQYQALQDRSSASLVDLRHLLLDIEELVNSPDYQALAPDQRSTLQAARKELMRRIQKQEN,0.213
16,HMEDQVITQFNMRLIRAVMPQGAPMIVVYEDPKDYPGLFVARLFDGRKSTHLIALADTLEDI,-0.123
17,HMSIGLEDLIEQKGVADTDLRPSGWINVGNQRIFVVTEGSYIDQNDNVIILSVDGNRVVVRKI,-0.747
18,HMSPPPRPSHPEAAGLRHLAFEVDNIDDAVRHLDRLGVPHEPVRTDEYTGRRFLFFTDPDRLPLELYEK,-0.0818
19,HMDGMNEELYQKFFALVGNPDEGKRISQAKAAQALGYSSAVVSAYKNRTYNGNIKAFEDAVQAWLKREERR,0.000413
20,HMSNEIIFNQKSITRFLMNPENNSPMIYPLELGHEMKVIKKNNDWLNVTDEKTGLNGWVISDDFGLTKPEG,-0.212
21,HMAGQWQQDQNGWKYKTDNGDHMKNTWYQDSDSRWYYFGPDGYMKSSTMTPDGYVVGSDGAWIE,-0.518
22,HMKVSVDLSMFEDDQTADRNAAVAWVVDELGAGGVDRTILMQLQSTGWSAEQSRAILDLASAGR,-0.208
23,HMYSDQRMEIFLEHLPDFIEQLSHKHVTRQMVWEDYRMIYPDGYGKSQFFFHLAQNLKAQKP,-3.3
24,HMPDPLVEIRSAVHSNYAGMIAMLGADNRVYLGREEHYSYQDGQPGQYDNRDGSLLFVSDQPDIYYFL,-1.44
25,HMTEDNDLETIAYDILKERNLNNININVKNGVLNIYGKTETLKEKREIEKILSSLNVSKINNLIKI,0.315

# From the domain aggregation screens of Martell et al. (2025)
